Test results published in the DeepSol protein solubility set.

Assay: soluble on expression in E. coli; label from the status in PepcDB or PDB records

Soluble on expression in E. coli, soluble:
MSLKNNEVAFYAMGGLGEIGKNMYCVQFQDEIIVIDCGVLFPEDELLGVDYVIQNYDYLIENKDKIKGIFITHGHEDHIGGLPFFLQKVNAPIYAGPFAMSLIKGKLEEKHLLRNAELHEINEFDEVHFKKLWVSFFRTTHSIPDTLGVAVHTPQGTIVQTGDFKFDLTPVGNLPGPNLQQMAKLGDDGVLLLTSDSTNAERPEFTKSERWVDIHIRRIFERIKGRIIFASFASNVYRLREASDAAIAQGRKIAVFGRSMENAITAGQELGYLNIPKDSLIDQNEINNYPPEKVLIMCTGSQGEPMAALSRIANGTHRQITIQPEDTVVFSSNPIPGNTTSVNALINKLEESGANVIHGYVNNIHTSGHGGQVDEEFMLRLMKPKFFAPVHGEYRMQKIHTKLAEMTGVPKENSFVLANGDVLALTKDSCRVADHIDSVSDVYIDGRDAGDTVGNPEIRERRLLSEEGVVTAIAVVDLKDYQIVAGPDIVSRGFVYMHESQELIKAANHEVFWAILNTFKNHKHIDQRVLNRTIISRLQKLLYDRTGRRPVIIPMVTILNGEGHHHHHH
MAHHHHHHMVEAQRGYNCVWHSWPPPLQGVNKHFNSCAASPLPLQLLVGNRILLITKDPPLKVIKFFNEFQPEEYIKPGNICTQNVTLKFGDVLNVPVSMQKDLQKRKVTFDIVDQKIVIRKDKVLAEKDKLVSAENAKLLRMLNMKIANFDITVLGYWNVNKFVSLM
MSLQTKQKGLQEVLIAAIKRATNEKTLVSFVKQIDWVDPLLFYAAGKRISFENRCYFADPAQHVIFAGIGSVFTIANSSHKRFQTARDEWEKVKENAFVQRDEYEFGTGPLLFGGFSFDPEKEKTDLWKEFKDTTFSLPAFLLTVKNEKAWLTMNTFVSATDCAETLSNEMISLEEKILGESRCALNGSKLTVISKVEVDPKGWMKAIEKVQDEMKQGNVQKVVLARELKVEMNHSIDSALVLEALRIGQPDCYVFSFDYKGACFLGATPERLIRKEDEKFTSMCLAGSIGHGHSIEESKRNSNALLHDEKNLAEHGYVVNMIRSVLNEHCEYVNIPESPGLLTTKNLIHLYTPVEAKGDASLLTMVEELHPTPALGGTPRLEAMKLIRDVELLDRGLYGAPIGWIDDEGNGEFAVALRCGLLNGEKASLFAGCGIVIDSIPQLEYEETSLKFRPMLGALEELMKEGHHHHHH
MYQVVKMFGDWEPWWFIEGWEEDITEIAEYDTLSEALLYFQEEWDRGQEKWPYFQSKSSLLATFWSIKEKRWCEECDEYLQQYHSLMLLKEWQEIPKEESIERFEVFNKIAELPSACSLNLLEHHHHHH
MSLNAKTVTELRSALLYMRAEDYHLWVNMGLALRELGETGRGLWMEWSATSEKFDSKDAAKKWNSFKPTGTSYQAVFAEAARHGWVNPGRSDAQLTGRRVQTQLKTSHKIKLEFAMSSDTETAKVSYLVDPFLPCKCVVGFFGRGGTAKSSFLATMAAMISQRASTLWVSAEELTDWIKARHIKTGGAPGTLQVFRGIETDEHSGQHIQVFGVYEHLDAALTMSNVAARDAGMPAVRLVVLDTAVALTIWPSGQGPNDDASVKRLLAYMQALAEKHDVTIAFIGHNNKRSSQNTEHFEDMVAGAGAWVTSPRVAFVHARDRREENSYVMRLAKPQLTPRFLVTYKTEPVHTLAQREDAPASVLCRVALGDEYIWGEDESASVFDAATGKDTEEDSGHVLEQRATTVQQVIDALVQMVHMTNAGQDVTRDMVHSALHRIVNGRRWKDVDDRLYMAQFQYRIAIVRGPNNQVLYRKMGPAEGHHHHHH
MTERFDCHHCNESLFGKKYILREESPYCVVCFETLFANTCEECGKPIGCDCKDLSYKDRHWHEACFHCSQCRNSLVDKPFAAKEDQLLCTDCYSNEYSSKCQECKKTIMPGTRKMEYKGSSWHETCFICHRCQQPIGTKSFIPKDNQNFCVPCYEKQHAMQCVQCKKPITTGGVTYREQPWHKECFVCTACRKQLSGQRFTARDDFAYCLNCFCDLYAKKCAGCTNPISGLGGTKYISFEERQWHNDCFNCKKCSLSLVGRGFLTERDDILCPDCGKDI
MSLWEFYMPTDVFFGEKILEKRGNIIDLLGKRALVVTGKSSSKKNGSLDDLKKLLDETEISYEIFDEVEENPSFDNVMKAVERYRNDSFDFVVGLGGGSPMDFAKAVAVLLKEKDLSVEDLYDREKVKHWLPVVEIPTTAGTGSEVTPYSILTDPEGNKRGCTLMFPVYAFLDPRYTYSMSDELTLSTGVDALSHAVEGYLSRKSTPPSDALAIEAMKIIHRNLPKAIEGNREARKKMFVASCLAGMVIAQTGTTLAHALGYPLTTEKGIKHGKATGMVLPFVMEVMKEEIPEKVDTVNHIFGGSLLKFLKELGLYEKVAVSSEELEKWVEKGSRAKHLKNTPGTFTPEKIRNIYREALGVEGGSHHHHHH
MDGEEKTYGGCEGPDAMYVKLISSDGHEFIVKREHALTSGTIKAMLSGPGQFAENETNEVNFREIPSHVLSKVCMYFTYKVRYTNSSTEIPEFPIAPEIALELLMAANFLDC

Soluble on expression in E. coli, not soluble:
MGSDKIHHHHHHMTMTFALRDPAQVLARALELRVDVSPETAEVEHELGALHDRMRRPGDRLHDMPHMPSGLPGLRLRYREADGEIFVYVEDVASRQLAGYTVFNRLIEVGRRADPWVRSPHTKFAPPYQRLGLASGLYRWALDGGLCLLSGARQSAGAHALWQSLGRRYALGYVDLRYKTLTSLGEQVSAVVKDDLHTRMLLLGHGWTLGRFKEATGMY
MARTAVPDNQPEITGFRIVLNNFEGPFDLLLQLISAKKLDVTDVALHKVTDDFVAYTRALGEFAELDEVTEFLVVAATLLDLKAARLLPRGEVDDLSDLELLESRDLLFARLLQYKAYKQVADQFARWQLAAQRRYPRAVGMEEQFSSLLPPVKISHTPKSFAELAASVFRPKPPDTVGTSHVHGVEVSVPEQAGKVLDLLVECGEGVWMDFPDLITGCRVSLEVVGRFLALLELYKARAVSLEQEESLGALRVSWTGIHVDPAIVAASNWA
MAHHHHHHMDVKEYTHNIIDIDISNHIKIRSSNNYNNKKLKETIRQNAKKIRDITFKYWIKEKQLQSGNFVINDENINDKMIIENKKDIINNINNDKKISYSYVDSFQTCVTNSKDEEGVLYIDDLYTYLIRQLYILFCSLEVRKKKNNVQFDFTRIYKYTYNYKKLESHISYEYLKKYDINDDIIKNDIENFHFYAYDHNIEDPKKYCDMEENYNNANYNICIYLPTKKEIDILFIIDQLYDYFYFVLYVPITTKEKDLIFFPFNIKNNLLVQYHFNIFIPYDYIYYTTYKKMNNFILNYSKIVKNYELSNSLYKHNDTIILIPLIAYNKLGYRIGSGKGYYDKTLTKTRKKNDIIKQIKNIQMNDNIITNNKDHDIQKENHLYLGTKNDTNNIICSNVKNIKHKTFNNEIEIYTQNKQKIYFNEIKIGVSFEMFLYDIDFSETTDLILDYMINENNIYHFIL
MGSDKIHHHHHHMALVKLQTQHFRNLLSAPVEFSPSFNLLYGANGSGKTSVLEAIGYLGLGRSFRVSRHQAVVAHGQSKLTVFGALDSGLLAQESSEKVEHRIGISRDVSLKETQLRVDGEAVRSLSFLAMHLPVSVIDPGVFDIVAGGPGKRRQFLDWLVFHVEPSFSSLWQQVQRVTSQRNQMLRNGRLDESLMRVWDSQYGALAESLSDIRETVFQRFKIAFESVLAELDAPWVEGLKMDFYPGWDRSTALTEVLVNHREQERRMGHTLYGPNRADIRLKFGGRPVAETFSRGQQKTLVILMKIAQGKVLSDLGKQVTFLLDDINAELDVRHRVMLARNLQELRCQVFITSIEHPEPDTLWHDGDTPEYRMFHVEHGQLTEE
MGSDKIHHHHHHMSQDDLLSQEEIDALLKGVSGDEDNAQDERASREGKVRPFDPAKQHRIIRERLHALDIINERFARQFRVALFNLMRRSADITVESVRYQSYSEFSRNLPVPTNLNLITMKPLRGSALVVFPPSLVFMVVDNLFGGDGRFLTKSEGREFTRTEQRIIHRMLKMALEGYSESWKSVYPLDIEYTRSELQVKFANITNSPNEIVVNSTFHVEVGNLSSEFNICIPYSMIEPIRDILASPLHDTHPDEEQQWEARMAHEIRHSSVELTADFVDIPLRLRDVTQLSVGDIIPIELPEAVNVSVDGIPVMTCDYGSQKSQRALRVRHLIEHGSSQVAAKDPKDD
MGSDKIHHHHHHMRIAIIAITRNGARLGTQLRDGLGSAELYVLQKFAGQAGTGAVPFAGELKGLVAELWPAFDGFVFIMATGIVVRMVAPHLVAKDLDPAVVVMDDAGKFAVSLLSGHLGGANELACRCAFVTGAREVITTATDANNLPSFDMLAKEEGWAIDDLCRVKTLNALILEGEEIAVVDPTDRVRTAFHGTARLTFHDTFVEALQSGAKGFVFVTNRRLPPQAQADSLLILRPRNLALGIGCNSGTGAEEIAAVVGAQMKRLFLSLKSVACIGSAVAKQDEAGLLAFAREHGLPLRFFESGELNSVTVPSPPSAHALEAIGATGVAEPAAVLASNGGRLLLKKIKSGNVTLAIAEIP
MGSDKIHHHHHHMAFKTPLADRMRPQSLEQMVGQQDLLKAGQPLRQIIDQHVNIPLILWGPPGTGKTSLAQIIASQDDYPFVAFNASTENKAQLTKAIAQYPEQSFVLLIDEIHRMTKTLQDFLLPYLENGHVMLIGSTTENPIMSIVPAIRSRCQIFEFQPLSDTDIEIALRRAVTDIYNLTDDQVDAKALNLIAISAEGDLRIALNILETLHAIDQKQITVAAVQHFAQQQHFSYDRKATKHYDYLSAYSDSMAGSDTDAALYYLTILLKNDDLPSVVRRLREIPYTYIGLANPEQVTQIVVAANQAEKIGMPKAKYPLMFATMLMCISPKSGSFDQSWEKLDQDTQNPSQHPMPRGLRDMHYKHSEEITGGGLIDNPFQMPHQIAQQNYMPKGLAGRRYYYPKDNENERKLGAQYLKLHRFIYNEDYHE
MADANATICYLNGLSLHTINEVEKILLALPKKGDRCEVQMSKPLNRCIGRSTGDVIASRSVQIRDEPKPLSLSPQKSEQEIKKSSKSKKLSEDCCLRSIKERVEIVETRNGSDAFGAKKLQYKVLTDQVRVSPIVSCNGVTLELDVEVTIPDRDEKKKLKLEIDRTLSVLILSIRNH
MGDQLDAVEVQAISPDGEITVKLGTGDAVDVQFKSDEYFKSVPHETLSHQLGRALTLLAVGRIRKRHQILEAEGFEVYGEDDAHWDKRVRVFREKRAQVKAAGRSPKRHIAIATVGLRDFKVRFERDVTRRLSRSEFSGEFGGAVAAVISEYSAQMTQLKTAMFT
MTLLGIKLKQTQQLNQRLQQSLRVLQMSGIELEREVENWLSDNPLLERKDTDEFSDAEFSHYTAPARQIGGDEGEDMLSNIAGEQDFKQYLHAQVCEHPLSDQEAACVHILIDFLDEQGYLTDSIEDILDHTPLEWMLDEAMLQHALTALKKFDPAGVAAADLNESLILQIERLGECAAKPAALHIVRNALDSIDGNRSQTLARIKKHLPQTDSGTLEAALDLIASLNPFPAAGFASSTPTPYSDEALANLLAFRGMEVSRRTIAKYRESFEIPAAHKRKTAE
MVTILDRTSSDEKRIRHPEKAHRPDTEVMRKPEWIRVKAPTSKGYHETRELVRSHKLVTVCEEAGCPNIGECWEKKHATFMIMGEICTRACAFCNVATGKPNALDMDEPENVAKAVKQMGLSHVVITSVDRDDLADGGAEHFEKVIWAIRAASPTTTIEILTPDFLKKPGALERVVAAKPDVFNHNMETVPGNYLTVRPGARYFHSVRLLQRVKELDPTMFTKSGIMVGLGEERNEVLQLMDDLRSADVDFLTIGQYLQPTRKHHKVEAFVTPEEFKSYETVAYAKGFLMVSSSPLTRSSHHAGDDFERLRAAREKKLLAAAE
